We go through one substance from patent publication US7005415B1.

In this experiment the target is FGF-1a produced in E. coli (human) (UniProt P05230). Conditions: scale: % band intensity remaining after 0.01% trypsin.

On to trypsin (enzyme), for which the intensity of the remaining band after trypsin treatment (SDS-denatured electrophoresis, blot) turned out to be 6.
